Paper PMC6941969

Biological target: VemH (Streptomyces venezuelae ATCC 10712)

apparent Kd from enzyme activity: initial velocities of venemycin production (HPLC) at constant 0.2 µM VemH and 0.1–8.0 µM VemG, fit with a quadratic binding equation: 5.1 µM
Substance: VemG (enzyme)
